Test [1] deals with H7N9病毒 A/Anhui/1/2013 (血凝素HA on virus) (influenza A virus A/Anhui/1/2013 (H7N9)). Kind of test: cell-based or functional assay.
Test [2] deals with H7N9病毒的HA蛋白(购自ACROBiosystems) (H7N9 influenza virus). Kind of test: BLI (PALL Fortebio), 3F12 captured on protein A sensor, HA antigen in solution. On the technique in general: BLI is a label-free optical method that tracks binding on a fibre tip over time.
Test [3] shares this target. The test can be described thus: ELISA, HA coated, supernatant of transfected 293F cells, anti-human IgG-HRP. (In general: ELISA stands for enzyme-linked immunosorbent assay.)

Where “and” joins values, the source holds several entries; their conditions need not be identical. Identical values can stand only once.

B1: 抗H7N9全人源单克隆抗体3F12 (antibody, V domains shown)
VH: QVQLVESGAEVKKPGASVKVSCKASGYIFNSYDINWVRQATGQGLEWMGWMTPDSGDNGFAQKFQGRVTMTRNTSITTAYMELSSLTSEDTAVYYCANGTADCSSGGSCYTWFDPWGQGTLVTVSS
VL: SSELTQDPAVSVALGQTVRITCQGDRALRSYYASWYQQKPGQAPVLVIYGKTNRPSGIPDRFSGSSSGNTASLTITGAQAEDEADYYCTSRDNSGYHLVFGGGTKLTVLV
The Kd is the concentration at which binding is half-saturated. For B1, the 中和实验 IC50 (微量中和-ELISA, MDCK细胞) in test [1] came out at 14.3 µg/mL. In test [2], this molecule yielded a Kd of 3.5 nM. Further, the OD 450nm in test [3] was 2.31 OD450 and 2.78 OD450 and 2.06 OD450.
